The nature of this series: label from the status in PepcDB records.
With “MQVRTLTPDDLPQACALCMDAFMQAVAPTLSAQGIETFTQVSAPQAFAERMQGDNLMLACFVEGAIAGLIELKEGRHIAMLFIAPGLQRQGIGKRLMNAALEHASAEVVTVKASLSSVPAYQRYGFTLAGDVGEFAGLVYQPMEKRLPTQPALEHHHHHH”, the protein production entry is “not failed”.
For “MTRRALFGPKVAPLIQAASLTLALLLFLAACGPKGSYENVGPEELYEALAAGALVVDVRTPGEFAQGHVPGAINLPVEEVARWADRIPKDRPVYLYCRSGNRSRKAAEYLARKGYTNLYNVEGGVLAIARAGYPLVR”, the protein production result is “failed”.
The result for “MNKHLKIQIMNIHSEREIYSARVLNAPIEIVYEAFANPSYLKNWWGPKGFTNTIHAFDLQPGGKWILTMHGPEKGNYENSSIFKIVEPQKLISWERKSKPLFDMEVEFKKLNNLQTEISFRMTFSTKEDCDKIRSFVEPQNEELRSIRKRNSEHKLIPTCIPRHPHWLVFQSRQ” reads “failed”; that for “MYSYADRLRAVELYIRLGKRLNTTIRQLGYPTKNALRGWYREYVQHLDLRTQPVARAPKYSEAQRQAALEHFRTHDRCISGTMRALGYPGRGTLTAWVREAFPEARTSMVGRSWHPGYSEEVRQAGVIGLCSGDESAQQVADRLGVSRPTLYSWKDQLLGHEASSSMKRRKANPKVPEREELERKLEALQRDVRQLQLEHDLLKKANELLKKGLGVDLLILSNREKTQLIDALKEVYRLPELLAQLRIARSSYFYHRARMCLADKYAAVRLSLAEIFEANRRCYGYRRLQASLARKSVIVSEKVVQRLMKQEHLAVARPRRRRFGSYLGEISPAPENLINRDFHADAPNVKWLTDITEFQIPAGKVYLSPIIDCFDGMVISWSIGTQPDAGLVNTMLDAAIGTVANGEERPIIHSDRGAHYRWPGWLTRISEARLVRSMSRKGCSQDNAACEGFFGRLKTELFYPRDWKAITIEQFVAEVDAYIRWYNEKRIKISLGSLSPVEYRQSLGLKLLEHHHHHH”, “not failed”.
For “MGPTLGPAPLRGKSIPMNRTGRALTLGCLLLLQPLLAHAQAGGNSLLIPALGRCTLDPQAQDQAEALTACQKAADEGDAEAQYELGEFYYEGKGAPQDFNQALSYFEKASLQGHAQAQFKLGTMFFHGEGVPANNVQAYIVLKMAAVNGAEDALDTADEVAEHMQRDELEVATQVLGQIFRKYLMELQSADGRSPFSPLP”, the protein production result was “failed”.
With “MADIQGEDLESLYGYAKQLFDGGEIAAARNVYQLLSTLDHWNFDYLLALGLCHQRLGAHNEAVVCFGRAGLIKVDDPRAAFYAGISYRLDGNAEYASKAFKAAINWCGEQIDYQAIKASAVDMLALQQEEVPLEHHHHHH” the entry was “not failed”; with “MDKLNAISIFCKVIETQSFTLAAKQQNISVAMASKLVSQLEEHLKTRLLQRTTRKIMPTEAGMMYYQRCQGILLDLDEADSSITQLTSSLQGNLLISVPRDFGLLFIAPNLPTFMAKHPHLHIEVEFNDKKIDLLSEGYDLALRIGYMEDSSLVSRKIGTTTVHFAASPNYLETNGIPQTPDDLEHHNGLLYKNAMNQVNWVGSRINQTQRFKIQSKVVSNSGFALLNMAKAGLGIANLPKFILGRAFEKGELIEILPEYKQQKLEIHVVYPNRRHLPIKVTGISLNF”, “failed”; with “MSAIRSRRSLLIPVLIVALLHVYIGVRLLPGLPVPMIVHSLAVLWLIASTLLMPAALMARRLSTPWADQLSWVGMMAMGFFSSLLVLTIARDLFLLVTLAIGWRPPGLTGYSALGAIALALAVTVIGFFQARGLAKVKEVDVPIANLPDALHGFTIAQISDIHVGPTIKRPYIDRIVDRVNSLAPDAIAITGDLVDGSVRELSAHTAPFARLSARHGAYVVTGNHEYYSGAEAWIVELRRLGLRVLMNEHVVVERGDASLVLGGVTDFTAGGFIESHRSDPVQALDGAPRDAAARVLLAHQPRTAPAAAAAGFDLQLSGHTHGGQFWPWNLFVPMQQPYVHGLNRHDNLWVYVSRGTGYWGPPKRFGAPSEITLVRLVRG”, “failed”.
As for “MKPSVSITGEQEAHKVAAIFETETDANGVARVLSQETSLDHEQVIVVSPQDQHPGEELEPENQGIWQTLVRSHLWLGIGGAVAGFIVFLILSAIGVGFIAQNGVVAAAVLAALGLILGLLVAGGVTLRPDHTPYVAKAQSALKEGKYVLTVHASSSEQLKEATTVLKNRNVRLVRTI”, the protein production result is given as “failed”.

The values are drawn from a protein production outcome set (Wang et al. 2014).
